Results published in article PMC10375638.
Like-named read-outs stand apart in the source and are kept apart here.

Assays:
[1] = target: AP1-mV reporter in Arabidopsis flowers (Arabidopsis thaliana) (UniProt P35631); assay: FRET or BRET; FLIM-FRET (OPA) in young flowers of stable A. thaliana lines; donor AP1-mV, acceptor AP1-mCh or PI-mCh, endogenous promoters, F1 plants; only nuclei with donor and acceptor
[2] = target: APETALA3 (AP3) fused to mVenus, expressed in N. benthamiana (Arabidopsis thaliana) (UniProt P35632); assay: FRET or BRET; FLIM-FRET with one pattern analysis (OPA) in nuclei of transiently expressing N. benthamiana leaf epidermis cells; donor mVenus fusion, acceptor mCherry fusion; BINDING = relative amplitude of the FRET fraction; nucleoli excluded; FRET efficiency only for nuclei with BINDING above 10%
[3] = target: … (PI) fused to mVenus, expressed in N. benthamiana (Arabidopsis thaliana) (UniProt P48007); assay: as above
[4] = target: APETALA1 (AP1) fused to mVenus, expressed in N. benthamiana (Arabidopsis thaliana) (UniProt P35631); assay: as above
[5] = target: APETALA1 (AP1) fused to mVenus, expressed in N. benthamiana (Arabidopsis thaliana) (UniProt P35631); assay: as above; remark: listed apart in the source
[6] = target: APETALA1 (AP1) fused to mVenus, expressed in N. benthamiana (Arabidopsis thaliana) (UniProt P35631); assay: as above; remark: listed apart in the source

Chain of … (PI) fused to mVenus, expressed in N. benthamiana (Arabidopsis thaliana) (P48007 whole entry, the tested form may be a part): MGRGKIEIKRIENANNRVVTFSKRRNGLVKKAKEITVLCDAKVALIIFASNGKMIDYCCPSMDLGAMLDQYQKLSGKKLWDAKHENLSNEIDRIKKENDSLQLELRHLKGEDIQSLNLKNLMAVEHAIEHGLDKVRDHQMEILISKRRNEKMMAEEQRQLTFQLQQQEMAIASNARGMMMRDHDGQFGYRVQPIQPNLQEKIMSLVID
Chain of APETALA3 (AP3) fused to mVenus, expressed in N. benthamiana (Arabidopsis thaliana) (P35632 whole entry, the tested form may be a part): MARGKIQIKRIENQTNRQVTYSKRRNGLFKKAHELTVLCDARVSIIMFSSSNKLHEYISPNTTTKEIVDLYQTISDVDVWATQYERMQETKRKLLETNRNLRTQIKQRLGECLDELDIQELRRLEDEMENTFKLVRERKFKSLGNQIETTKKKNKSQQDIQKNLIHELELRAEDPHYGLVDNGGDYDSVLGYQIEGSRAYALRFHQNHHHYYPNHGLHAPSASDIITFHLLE
Chain of APETALA1 (AP1) fused to mVenus, expressed in N. benthamiana, P35631 1-256 (natural protein; other documents disagree on this pair) (P35631 whole entry, the tested form may be a part): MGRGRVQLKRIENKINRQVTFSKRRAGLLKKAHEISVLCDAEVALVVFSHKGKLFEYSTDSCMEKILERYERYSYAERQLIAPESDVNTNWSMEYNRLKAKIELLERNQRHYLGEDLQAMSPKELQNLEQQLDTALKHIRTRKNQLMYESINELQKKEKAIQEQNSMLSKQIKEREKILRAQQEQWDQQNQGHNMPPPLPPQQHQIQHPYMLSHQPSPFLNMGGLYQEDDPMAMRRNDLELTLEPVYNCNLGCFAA
Chain of APETALA1 (AP1) fused to mVenus, expressed in N. benthamiana (Arabidopsis thaliana) (P35631 whole entry, the tested form may be a part): as above
Chain of AP1-mV reporter in Arabidopsis flowers, P35631 1-256 (natural protein; other documents disagree on this pair) (P35631 whole entry): as the sequence (P35631 whole entry, the tested form may be a part) above

Row | BINDING [2] | FRET efficiency [2] | BINDING [3] | FRET efficiency [3] | BINDING [4] | FRET efficiency [4] | Substance | also measured
1 | – | – | – | – | – | – | AP1-mV reporter in Arabidopsis flowers, P35631 1-256 (natural protein; other documents disagree on this pair) | BINDING [1]: 8.59%; FRET efficiency [1]: 56.7%
2 | 16.5% | 43.6% | 16.1% | 41.5% | – | – | APETALA1 (AP1) fused to mCherry, expressed in N. benthamiana (from UniProt P35631 1-256) (natural protein) | –
3 | – | – | – | – | 29.9% | 39% | APETALA1 (AP1) fused to mVenus, expressed in N. benthamiana, P35631 1-256 (natural protein; other documents disagree on this pair) | BINDING [5]: 19.2%; FRET efficiency [6]: 40%
4 | – | – | 36% | 38% | – | – | APETALA3 (AP3) fused to mCherry, expressed in N. benthamiana (from UniProt P35632 1-232) (natural protein) | –
5 | – | – | – | – | 36.1% | 42.6% | …3 (SEP3) fused to mCherry, expressed in N. benthamiana (from UniProt O22456 1-251) (natural protein) | –
6 | 35.2% | 38% | – | – | – | – | … (PI) fused to mCherry, expressed in N. benthamiana (from UniProt P48007 1-208) (natural protein) | –
